Experimental data as given in patent US20170298395A1, “AUTOTROPHIC HYDROGEN BACTERIA AND USES THEREOF” (Ohio State Innovation Foundation, priority 2011, published 2017).
Like-named read-outs stand apart in the source and are kept apart here.

Columns and labels:
[1] = system: cbb promoter; format: cell-based, Ralstonia eutropha; settings: for Chemoheterotrophic β-galactosidase activity: Table 12, chemoheterotrophic (repressed) growth
[2] = system: RubisCO; format: cell-based, Ralstonia eutropha; settings: for level of RubisCO relative to wild-type CbbR: CH growth conditions; for Chemoheterotrophic RubisCO activity: Table 12, chemoheterotrophic (repressed) growth
[3] = Table 12, chemoautotrophic (induced) growth
[4] = Table 9, chemoautotrophic growth conditions

| Molecule | Chemoautotrophic β-galactosidase activity [1, 3] | Chemoheterotrophic β-galactosidase activity [1] | level of RubisCO relative to wild-type CbbR [2] [fold] | Chemoautotrophic RubisCO activity [2, 3] | Chemoheterotrophic RubisCO activity [2] | Chemoautotrophic β-galactosidase activity [1, 4] | Chemoautotrophic RubisCO activity [2, 4] |
| --- | --- | --- | --- | --- | --- | --- | --- |
| G205D/R283H (protein) MSSFLRALTLRQLQIFVTVARHASFVRAAEELHLTQPAVSMQVKQLESVVGMALFERVKGQLTLTEPGDRLLHHASRILGEVKDAEEGLQAVKDVEQGSITIGLISTSKYFAPKLLAGFTALHPGVDLRIAEGNRETLLRLLQDNAIDLALMGRPPRELDAVSEPIAAHPHVLVASPRHPLHDAKGFDLQELRHETFLLREPGSDTRTVAEYMFRDHLFTPAKVITLGSNETIKQAVMAGMGISLLSLHTLGLELRTGEIGLLDVAGTPIERIWHVAHMSSKHLSPASESCRAYLLEHTAEFLGREYGGLMPGRRVA | 4480 nmol/min/mg of protein | 2311 nmol/min/mg of protein | 530 | 115 nmol/min/mg of protein | 53 nmol/min/mg of protein |  |  |
| P221S/T299I (protein) MSSFLRALTLRQLQIFVTVARHASFVRAAEELHLTQPAVSMQVKQLESVVGMALFERVKGQLTLTEPGDRLLHHASRILGEVKDAEEGLQAVKDVEQGSITIGLISTSKYFAPKLLAGFTALHPGVDLRIAEGNRETLLRLLQDNAIDLALMGRPPRELDAVSEPIAAHPHVLVASPRHPLHDAKGFDLQELRHETFLLREPGSGTRTVAEYMFRDHLFTSAKVITLGSNETIKQAVMAGMGISLLSLHTLGLELRTGEIGLLDVAGTPIERIWHVAHMSSKRLSPASESCRAYLLEHIAEFLGREYGGLMPGRRVA | 5312 nmol/min/mg of protein | 655 nmol/min/mg of protein |  | 212 nmol/min/mg of protein | 16 nmol/min/mg of protein | 4672 nmol/min/mg of protein | 206 nmol/min/mg of protein |
| P269S/T299I (protein) MSSFLRALTLRQLQIFVTVARHASFVRAAEELHLTQPAVSMQVKQLESVVGMALFERVKGQLTLTEPGDRLLHHASRILGEVKDAEEGLQAVKDVEQGSITIGLISTSKYFAPKLLAGFTALHPGVDLRIAEGNRETLLRLLQDNAIDLALMGRPPRELDAVSEPIAAHPHVLVASPRHPLHDAKGFDLQELRHETFLLREPGSGTRTVAEYMFRDHLFTPAKVITLGSNETIKQAVMAGMGISLLSLHTLGLELRTGEIGLLDVAGTSIERIWHVAHMSSKRLSPASESCRAYLLEHIAEFLGREYGGLMPGRRVA | 3879 nmol/min/mg of protein | 617 nmol/min/mg of protein |  | 158 nmol/min/mg of protein | 14 nmol/min/mg of protein | 3697 nmol/min/mg of protein | 118 nmol/min/mg of protein |
| T232A (protein) MSSFLRALTLRQLQIFVTVARHASFVRAAEELHLTQPAVSMQVKQLESVVGMALFERVKGQLTLTEPGDRLLHHASRILGEVKDAEEGLQAVKDVEQGSITIGLISTSKYFAPKLLAGFTALHPGVDLRIAEGNRETLLRLLQDNAIDLALMGRPPRELDAVSEPIAAHPHVLVASPRHPLHDAKGFDLQELRHETFLLREPGSGTRTVAEYMFRDHLFTPAKVITLGSNEAIKQAVMAGMGISLLSLHTLGLELRTGEIGLLDVAGTPIERIWHVAHMSSKRLSPASESCRAYLLEHTAEFLGREYGGLMPGRRVA | 5269 nmol/min/mg of protein | 212 nmol/min/mg of protein |  | 140 nmol/min/mg of protein | 4 nmol/min/mg of protein | 4626 nmol/min/mg of protein | 78 nmol/min/mg of protein |
| G205D/G118D (protein) MSSFLRALTLRQLQIFVTVARHASFVRAAEELHLTQPAVSMQVKQLESVVGMALFERVKGQLTLTEPGDRLLHHASRILGEVKDAEEGLQAVKDVEQGSITIGLISTSKYFAPKLLADFTALHPGVDLRIAEGNRETLLRLLQDNAIDLALMGRPPRELDAVSEPIAAHPHVLVASPRHPLHDAKGFDLQELRHETFLLREPGSDTRTVAEYMFRDHLFTPAKVITLGSNETIKQAVMAGMGISLLSLHTLGLELRTGEIGLLDVAGTPIERIWHVAHMSSKRLSPASESCRAYLLEHTAEFLGREYGGLMPGRRVA | 3939 nmol/min/mg of protein | 1168 nmol/min/mg of protein |  | 148 nmol/min/mg of protein | 30 nmol/min/mg of protein |  |  |
| T232I (protein) MSSFLRALTLRQLQIFVTVARHASFVRAAEELHLTQPAVSMQVKQLESVVGMALFERVKGQLTLTEPGDRLLHHASRILGEVKDAEEGLQAVKDVEQGSITIGLISTSKYFAPKLLAGFTALHPGVDLRIAEGNRETLLRLLQDNAIDLALMGRPPRELDAVSEPIAAHPHVLVASPRHPLHDAKGFDLQELRHETFLLREPGSGTRTVAEYMFRDHLFTPAKVITLGSNEIIKQAVMAGMGISLLSLHTLGLELRTGEIGLLDVAGTPIERIWHVAHMSSKRLSPASESCRAYLLEHTAEFLGREYGGLMPGRRVA | 5005 nmol/min/mg of protein | 303 nmol/min/mg of protein |  | 123 nmol/min/mg of protein | 5 nmol/min/mg of protein | 5005 nmol/min/mg of protein | 106 nmol/min/mg of protein |
| E87K (protein) MSSFLRALTLRQLQIFVTVARHASFVRAAEELHLTQPAVSMQVKQLESVVGMALFERVKGQLTLTEPGDRLLHHASRILGEVKDAEKGLQAVKDVEQGSITIGLISTSKYFAPKLLAGFTALHPGVDLRIAEGNRETLLRLLQDNAIDLALMGRPPRELDAVSEPIAAHPHVLVASPRHPLHDAKGFDLQELRHETFLLREPGSGTRTVAEYMFRDHLFTPAKVITLGSNETIKQAVMAGMGISLLSLHTLGLELRTGEIGLLDVAGTPIERIWHVAHMSSKRLSPASESCRAYLLEHTAEFLGREYGGLMPGRRVA | 5515 nmol/min/mg of protein | 1597 nmol/min/mg of protein | 330 | 305 nmol/min/mg of protein | 33 nmol/min/mg of protein |  |  |
| G125S/V265M (protein) MSSFLRALTLRQLQIFVTVARHASFVRAAEELHLTQPAVSMQVKQLESVVGMALFERVKGQLTLTEPGDRLLHHASRILGEVKDAEEGLQAVKDVEQGSITIGLISTSKYFAPKLLAGFTALHPSVDLRIAEGNRETLLRLLQDNAIDLALMGRPPRELDAVSEPIAAHPHVLVASPRHPLHDAKGFDLQELRHETFLLREPGSGTRTVAEYMFRDHLFTPAKVITLGSNETIKQAVMAGMGISLLSLHTLGLELRTGEIGLLDMAGTPIERIWHVAHMSSKRLSPASESCRAYLLEHTAEFLGREYGGLMPGRRVA | 6770 nmol/min/mg of protein | 53 nmol/min/mg of protein |  | 259 nmol/min/mg of protein | 2 nmol/min/mg of protein | 6770 nmol/min/mg of protein | 162 nmol/min/mg of protein |
| D148N (protein) MSSFLRALTLRQLQIFVTVARHASFVRAAEELHLTQPAVSMQVKQLESVVGMALFERVKGQLTLTEPGDRLLHHASRILGEVKDAEEGLQAVKDVEQGSITIGLISTSKYFAPKLLAGFTALHPGVDLRIAEGNRETLLRLLQDNAINLALMGRPPRELDAVSEPIAAHPHVLVASPRHPLHDAKGFDLQELRHETFLLREPGSGTRTVAEYMFRDHLFTPAKVITLGSNETIKQAVMAGMGISLLSLHTLGLELRTGEIGLLDVAGTPIERIWHVAHMSSKRLSPASESCRAYLLEHTAEFLGREYGGLMPGRRVA | 6442 nmol/min/mg of protein | 343 nmol/min/mg of protein |  | 242 nmol/min/mg of protein | 8 nmol/min/mg of protein | 5909 nmol/min/mg of protein | 185 nmol/min/mg of protein |
| G125D (protein) MSSFLRALTLRQLQIFVTVARHASFVRAAEELHLTQPAVSMQVKQLESVVGMALFERVKGQLTLTEPGDRLLHHASRILGEVKDAEEGLQAVKDVEQGSITIGLISTSKYFAPKLLAGFTALHPDVDLRIAEGNRETLLRLLQDNAIDLALMGRPPRELDAVSEPIAAHPHVLVASPRHPLHDAKGFDLQELRHETFLLREPGSGTRTVAEYMFRDHLFTPAKVITLGSNETIKQAVMAGMGISLLSLHTLGLELRTGEIGLLDVAGTPIERIWHVAHMSSKRLSPASESCRAYLLEHTAEFLGREYGGLMPGRRVA | 6777 nmol/min/mg of protein | 108 nmol/min/mg of protein |  | 298 nmol/min/mg of protein | 3 nmol/min/mg of protein | 6777 nmol/min/mg of protein | 162 nmol/min/mg of protein |
